T1: VacB, P21499
T1 chain: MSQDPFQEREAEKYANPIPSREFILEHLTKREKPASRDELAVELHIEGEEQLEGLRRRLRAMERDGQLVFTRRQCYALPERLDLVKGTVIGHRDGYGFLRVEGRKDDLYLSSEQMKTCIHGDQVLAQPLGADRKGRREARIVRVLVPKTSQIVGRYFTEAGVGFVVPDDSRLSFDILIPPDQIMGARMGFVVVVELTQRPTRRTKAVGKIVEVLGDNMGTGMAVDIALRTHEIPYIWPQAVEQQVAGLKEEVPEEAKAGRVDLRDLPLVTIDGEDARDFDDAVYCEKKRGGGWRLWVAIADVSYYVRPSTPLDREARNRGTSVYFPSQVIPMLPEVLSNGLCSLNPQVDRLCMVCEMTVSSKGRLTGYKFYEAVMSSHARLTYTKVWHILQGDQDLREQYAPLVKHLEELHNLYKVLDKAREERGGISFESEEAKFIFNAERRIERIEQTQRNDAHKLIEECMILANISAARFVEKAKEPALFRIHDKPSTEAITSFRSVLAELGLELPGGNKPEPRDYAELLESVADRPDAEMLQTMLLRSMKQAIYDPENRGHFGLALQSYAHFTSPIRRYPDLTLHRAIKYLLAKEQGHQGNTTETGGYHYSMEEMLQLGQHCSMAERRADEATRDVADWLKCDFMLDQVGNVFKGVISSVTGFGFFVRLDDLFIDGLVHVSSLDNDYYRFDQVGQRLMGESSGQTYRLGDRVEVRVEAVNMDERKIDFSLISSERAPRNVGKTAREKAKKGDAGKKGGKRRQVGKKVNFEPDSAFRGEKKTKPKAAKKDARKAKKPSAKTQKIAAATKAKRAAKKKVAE

T2: DksA, P0ABS1
T2 chain: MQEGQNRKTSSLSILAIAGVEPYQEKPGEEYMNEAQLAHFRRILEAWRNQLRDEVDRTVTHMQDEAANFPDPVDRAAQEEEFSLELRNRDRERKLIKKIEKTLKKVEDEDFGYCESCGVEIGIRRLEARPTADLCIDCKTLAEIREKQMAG

T3: VacB (UniProt P21499 1-813)
T3 sequence: T1 chain

B1: CobB protein (biotin-modified, with Avi tag) (enzyme)
chain: MLSRRGHRLSRFRKNKRRLRERLRQRIFFRDKVVPEAMEKPRVLVLTGAGISAESGIRTFRAADGLWEEHRVEDVATPEGFDRDPELVQAFYNARRRQLQQPEIQPNAAHLALAKLQDALGDRFLLVTQNIDNLHERAGNTNVIHMHGELLKVRCSQSGQVLDWTGDVTPEDKCHCCQFPAPLRPHVVWFGEMPLGMDEIYMALSMADIFIAIGTSGHVYPAAGFVHEAKLHGAHTVELNLEPSQVGNEFAEKYYGPASQVVPEFVEKLLKGLKAGSIA
notes: also called biotinylated CobB protein
B2: DksA (other)
chain: T2 chain
B3: CheZ: biotin-modified protein CheZ with Avi tag (protein)
chain: MMQPSIKPADEHSAGDIIARIGSLTRMLRDSLRELGLDQAIAEAAEAIPDARDRLYYVVQMTAQAAERALNSVEASQPHQDQMEKSAKALTQRWDDWFADPIDLADARELVTDTRQFLADVPAHTSFTNAQLLEIMMAQDFQDLTGQVIKRMMDVIQEIERQLLMVLLENIPEQESRPKRENQSLLNGPQVDTSKAGVVASQDQVDDLLDSLGF
B4: CobB: Biotin-modified CobB protein with Avi tag; has deacetylase activity (protein)
chain: B1 chain
B5: SAm-Pup^E: mutated streptavidin-Pup tetramer, amino acid sequence SEQ ID NO: 5 (protein)
chain: MGAEAGITGTWYNQLGSTFIVTAGADGALTGTYESAVGNAESRYVLTGRYDSAPATDGSGTALGWTVAWRNNYRNAHSATTWSGQYVGGAEARINTQWLLTSGTTEANAWRSTLVGHDTFTRVRPSAASGGGGGSGSHHWGGGGSLTEETDDLLDEIDDVLEENAEDFVRAYVQRGGE
modifications: tetramer; The sequence is synthesized.

Legend:
[1] = test system: CSP series proteins (CSP1, CSP2, CSP3); experiment: SPIDER verification (Western blot) of c-di-GMP and CSP series short peptides; type: binding; details: 2 μM, CSP proteins 5 μM; compared with c-di-GMP without biotinylation
Method: The N-terminal sequences encoding CSP1, CSP2 and CSP3 were all labeled with Flag tags and constructed on PET32a vector, which was fused with thioredoxin for expression. The recombinant vector was transformed into E. coli BL21 (DE3) strain. The CSP1, CSP2 and CSP3 proteins were obtained by adding IPTG and inducing at 37° C. for 4h when OD600 was about 0.6 in 1 L of bacteria medium. The CSP1, CSP2 and CSP3 proteins were purified by nickel column.
After that, PafA7KR (1 μM) and ATP (10 mM) were added into the system and incubated at 30° C. for 6 h. Flag antibody was used for Western blot analysis.

ETHR protein = biological target: T4, ETHR protein (Mycobacterium tuberculosis, UniProt P9WMC1); type: binding
T4 construct: Flag (C); 6×His (C); made in house; host or cells: E. coli BL21 (DE3), pET28a

[2] = biological target: CobB protein (biotin-modified, with Avi tag) (UniProt P75960); experiment: BLI; series 1000, 500, 250, 125 nM; the filing does not say which partner was on the sensor
[3] = test system: YTDHF1, YTDHF2, YTDHF3 proteins; experiment: SPIDER verification (immunoblot) of biotinylated m6A RNA with YTDHF1, YTDHF2, YTDHF3; type: binding; details: 0.5 μM biotinylated m6A RNA; GFP antibody
Excerpt: The sequences of YTDHF1-GFP, YTDHF2-GFP and YTDHF3-GFP were constructed on pCDNA3.1 vector and transfected into HEK293T cells with Lipofectamine 2000 (ThermoFisher 118668).
Immunoblot analysis of GFP antibody was used.

[4] = Capture and mass spectrometry identification of m6A RNA interacting proteins; type: binding; details: 1 μM bait, HEK293T cell lysate
Method: HEK293T normal cells and SLIAC (Lys/Arg relabeled) cells were cultured and lysed with Thermo Fisher 78501 M-PER® Mammalian Protein Extraction to obtain cell lysates.
The reaction system was prepared as follows: 1 μM biotinylated m6A RNA, 5 μM SAm-Pup^E, 0.5 μM PafA7KR enzyme, 5 mM ATP, 5 mg HEK293T cell lysate or SILAC cell lysate were added, and buffer (50 mM Tris 8.0, 0.5 M NaCl, 20 mM MgCl2, 10% (v/v) Glycerol, 10 mM imidazole) was lysed to 5 ml. The system was incubated at 30° C. for 6h, and biotin agarose beads were added for incubation overnight at 4° C. Wash buffer 1 (8M urea, 50 mM Tris 8.0, 200 mM NaCl, 0.2% SDS), Wash Buffer 2 (8M urea, 50 mM Tris 8.0, 200 mM NaCl, 2% SDS), Wash buffer 3 (8M urea, 50 mM Tris 8.0, 200 mM NaCl), Wash buffer 4 (50 mM Tris 8.0, 0.5 mM EDTA, 1 mM DTT), Wash buffer 5 (50 mM NH4HCO3) were incubated at room temperature for 5 min and centrifuged at 1500 rpm for 4 min. The biotin agarose beads were transferred to a 1.5 mL centrifuge tube, centrifuged in a horizontal centrifuge with 1 mL Wash buffer 5, 1500 rpm for 4 min and washed repeatedly with Wash buffer 5 to obtain the reaction product. Trypsin was lysed and identified by mass spectrometry.

[5] = biological target: CobB protein (biotin-modified, with Avi tag) (UniProt P75960); experiment: BLI; series 1000, 500, 250, 125, 62.5 nM; the filing does not say which partner was on the sensor
VacB, P21499 = biological target: T1, VacB, P21499
DksA, P0ABS1 = biological target: T2, DksA, P0ABS1
[6] = biological target: CobB interacting proteins found and purified (tested by BLI, FIGS. 8B-8F); experiment: BLI
VacB = biological target: T3, VacB; experiment: BLI; series 1000, 500, 250, 125, 62.5 nM; the filing does not say which partner was on the sensor
[7] = biological target: B1; experiment: BLI; series 7500, 5000, 2500, 1250 nM; the filing does not say which partner was on the sensor
CheAs protein = type: binding; details: CheZ 0, 0.1, 0.2, 0.4 μM; wild-type CheAs 0.2 μM
VacB and DksA proteins = experiment: CobB deacetylation of VacB and DksA (Western blot, acetylation antibody); type: biochemical; details: VacB and DksA co-incubated with CobB
Method: CobB has the activity of deacetylase. CobB was co-incubated with VacB and DksA proteins, and the acetylation level of protein was detected by Western blot analysis of acetylation antibody.

[8] = Method: The SA-Pup purified from Step 1 was added into Buffer R (50 mM Tris, PH 7.5, 100 mM NaCl, 20 mM MgCl2, 10% (v/v) glycerol) and high salt buffers (50 mM Tris-HCl, PH 8.0, 8 M urea, 15 mM DTT, 1 mM EDTA, PH 8.0) containing 8 M urea, respectively. After mixing, the supernatant was absorbed, and then biotin agarose beads were added to rotate and incubate at room temperature for 1 hour, and then the supernatant was absorbed. The supernatant was detected by SDS-PAGE.
[9] = Biotin binding activity of SAm-Pup^E (SDS-PAGE); details: incubated with biotin at room temperature 1 hour
Method: The SAm-Pup^E protein and wild-type streptavidin (SA) purified in step 1 were mixed with biotin (A600078) and incubated at room temperature for 1 hour, and then detected by SDS-PAGE.

In the case of biotinylated c-di-GMP, the “migration of CSP series protein bands” value [1] is reported as “migrated significantly” and the “complex band of ETHR and SAm-Pup^E monomer” value (ETHR protein) is reported as “the detected complex bands become thicker”.

Work on RraA yielded a Kd [2] of 24.6 nM and a koff [2] of 0.000201 s⁻¹.

With “biotinylated m6A RNA: 5′-terminal biotin-modified m6A RNA, sequence CGUCUCGGCUCGGCUGCU (SEQ ID NO: 8) (5' biotin, m6A modification, chemistry not fully specified)” the “protein-SAm-Pup^E complex bands” value [3] was “presence of complex bands only in the presence of biotinylated m6A RNA” and the “binding proteins obtained by mass spectrometry” value [4] was “YTDHF1, YTDHF2 and YTDHF3”.

For `Nc1nc2c(ncn2[C@@H]2O[C@@H]3COP(=O)(O)O[C@H]4[C@@H](O)[C@H](n5cnc6c(=O)[nH]c(N)nc65)O[C@@H]4COP(=O)(O)O[C@H]3[C@H]2O)c(=O)[nH]1` [c-di-GMP], the “complex bands with excessive non-biotinylated competitor” value (ETHR protein; excessive non-biotinylated c-di-GMP added to compete with biotinylated c-di-GMP) was “the complex bands were basically unchanged”.

Work on GldA yielded a Kd [5] of 59.4 nM and a koff [5] of 0.000295 s⁻¹.

Work on RoxA yielded a Kd [5] of 103 nM and a koff [5] of 0.00124 s⁻¹.

For B1, the “acetylation level of VacB (IB: Ac-K), with and without CobB” value (VacB, P21499) was “Ac-K band clear without CobB, almost gone with CobB; His (VacB) bands alike in both lanes; biotin-CobB band only in the + lane”, the “acetylation level of protein detected by Western blot analysis of acetylation antibody” value (VacB, P21499) was “the acetylation level of a group of proteins added with CobB decreased obviously” and the “acetylation level of DksA (IB: Ac-K), with and without CobB” value (DksA, P0ABS1) was “Ac-K band seen without CobB, not seen with CobB; His (DksA) bands alike in both lanes; biotin-CobB band only in the + lane”. For the same molecule, the “acetylation level of protein detected by Western blot analysis of acetylation antibody” value (DksA, P0ABS1) was “the acetylation level of a group of proteins added with CobB decreased obviously”, the Kd [6] was 25 to 772 nM and the Kd (VacB) was 156 nM. It also gave a koff (VacB) of 0.00163 s⁻¹.

In the case of B2, the Kd [7] is reported as 772 nM and the koff [7] is reported as 0.00167 s⁻¹.

In the case of B3, the “complex bands of CheAs and SAm-Pup^E monomer” value (CheAs protein) is reported as “the detected complex bands become thicker”.

For B4, the “acetylation level of protein” value (VacB and DksA proteins) was “decreased obviously”.

In the case of B5, the “stability of binding to biotin agarose beads” value [8] is reported as “can still bind stably in high salt buffer” and the biotin-binding activity [9] is reported as “the same biotin-binding activity as wild-type streptavidin”.
